Results from the supplement of paper PMC10065799, “High-throughput profiling of sequence recognition by tyrosine kinases and SH2 domains using bacterial peptide display” (eLife, 2023).

biological target: MERTK (UniProt Q12866); test: phosphorylation enrichment, bacterial display (enrichment ratio); higher = better substrate or ligand; peptides without Tyr show the background
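Note: 11-residue human phosphosite peptides and single-mutation variants displayed on the E. coli surface, counted by deep sequencing, each peptide's frequency after selection divided by its frequency in the unselected input library; frequency after pTyr selection over input frequency; kinase dosed for 20-30% of maximal phosphorylation in three min.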

Sequence of MERTK (Q12866 whole entry, looked up): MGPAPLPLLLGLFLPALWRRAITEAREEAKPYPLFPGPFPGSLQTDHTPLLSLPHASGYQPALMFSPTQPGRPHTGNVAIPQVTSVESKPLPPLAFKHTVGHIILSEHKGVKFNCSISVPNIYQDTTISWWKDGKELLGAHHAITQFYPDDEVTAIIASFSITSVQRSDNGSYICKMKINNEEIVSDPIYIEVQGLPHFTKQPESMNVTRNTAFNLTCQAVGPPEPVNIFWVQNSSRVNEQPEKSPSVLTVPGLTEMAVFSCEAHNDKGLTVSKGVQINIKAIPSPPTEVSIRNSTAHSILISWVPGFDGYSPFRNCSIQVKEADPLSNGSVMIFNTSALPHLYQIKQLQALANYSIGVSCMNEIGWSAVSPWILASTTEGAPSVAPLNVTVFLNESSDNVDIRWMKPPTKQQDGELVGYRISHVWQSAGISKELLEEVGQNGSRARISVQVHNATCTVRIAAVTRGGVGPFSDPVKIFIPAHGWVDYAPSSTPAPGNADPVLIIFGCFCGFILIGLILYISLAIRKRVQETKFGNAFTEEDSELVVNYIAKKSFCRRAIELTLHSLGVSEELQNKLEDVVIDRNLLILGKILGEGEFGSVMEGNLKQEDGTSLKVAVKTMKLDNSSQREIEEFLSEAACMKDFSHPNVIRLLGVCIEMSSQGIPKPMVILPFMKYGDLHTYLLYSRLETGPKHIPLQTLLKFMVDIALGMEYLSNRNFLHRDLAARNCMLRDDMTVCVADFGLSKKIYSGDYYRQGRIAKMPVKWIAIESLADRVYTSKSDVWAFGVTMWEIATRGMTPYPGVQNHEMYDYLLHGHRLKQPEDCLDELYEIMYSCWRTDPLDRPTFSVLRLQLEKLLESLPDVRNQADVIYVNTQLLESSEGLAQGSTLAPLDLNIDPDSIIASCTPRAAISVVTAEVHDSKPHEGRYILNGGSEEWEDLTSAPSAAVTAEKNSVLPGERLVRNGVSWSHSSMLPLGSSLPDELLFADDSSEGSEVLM

Compared with PGQRVYVVAES [SHH_Y316_R321S], PVDVAYRHGFF [PLEC_Y2967_R2969H_YF] is lower in phosphorylation enrichment: 0.377 for the first, 0.366 for the second.

First: IGEGTYRTVFK [CDK5_Y15_G16R]
Second: RNVFFYSFLLK [PTEN_Y178_Y174N_YF]
The phosphorylation enrichment of the first is lower: 0.384 for the first, 0.757 for the second.

First: SLQFEYVHFGG [CDC14A_Y591_S589F_YF]
Second: ILIFHYAKGQP [MPZ_Y82_S78L]
The phosphorylation enrichment of the first is lower: 0.426 for the first, 0.475 for the second.

Going from HISGVYKLPPD [ANGPTL7_Y145_R140H] to KGRAGYTTVAV [RET_Y752], the phosphorylation enrichment falls from 0.725 to 0.415.

Going from ATARPYRPYII [LRP5_Y1528] to PSGPAYRGAVP [ASAH1_Y43_T42A], the phosphorylation enrichment rises from 0.468 to 0.476.

Compared with ARGMEYLASKK [FGFR1_Y613], RKETFYILSCR [GUCY2C_Y681_T682I] is higher in phosphorylation enrichment: 0.354 for the first, 0.525 for the second.

Compared with RLRKYHLGKYL [KLB_Y906_Y906H], FLTQHYDAEPQ [ANG_Y38_K41E] is lower in phosphorylation enrichment: 0.503 for the first, 0.502 for the second.

Going from TEQDPYNNIVH [MMUT_Y364_R369H] to YSGDCYRIQGR [DDR2_Y741_Y740C], the phosphorylation enrichment rises from 0.512 to 1.25.

First: LKEIRYPPFTD [ALDH3B2_Y362_H361R_YF]
Second: DQIDTYELSGG [DNM1_Y354]
The phosphorylation enrichment of the first is higher: 0.725 for the first, 0.481 for the second.

First: NHFKIYNLCAE [PTEN_Y68_YF]
Second: WQQQSYLDYGI [CTNNB1_Y30_S33Y]
The phosphorylation enrichment of the first is higher: 0.584 for the first, 0.426 for the second.

First: GLSAPYVKIHL [SYT2_Y309_D307A]
Second: KIVQDYLEKFY [MMP8_Y36_T32I]
The phosphorylation enrichment of the first is lower: 0.43 for the first, 0.483 for the second.

Compared with GVRLFYRVRES [RB1_Y454_M457R_YF], KVGRVYLFLQP [ITGA2B_Y360_E355K] is higher in phosphorylation enrichment: 0.383 for the first, 0.391 for the second.

Compared with NRVEIYEKTVE [CYFIP1_Y108], VPLLEYFRDIF [CDAN1_Y712_YF] is higher in phosphorylation enrichment: 0.5 for the first, 0.56 for the second.

Going from DDHFTYSRYPW [LY75_Y888] to LVSCTYQLARG [FGFR2_Y608], the phosphorylation enrichment falls from 1.23 to 0.443.

First: IHFAIYLLKFS [ARMC9_Y107_YF]
Second: PPSLSYLSFEG [EXOSC3_Y143_A139P]
The phosphorylation enrichment of the first is lower: 0.414 for the first, 0.602 for the second.

Compared with LNARHYGGLTG [PGAM2_Y92_E89A], KVNKIYHPDFI [LIG3_Y767_Y768H] is higher in phosphorylation enrichment: 0.44 for the first, 0.443 for the second.

For QSPQLYKQMCI [DARS1_Y253], the phosphorylation enrichment was 0.603.

tested on: c-Abl (mouse); test: as above

First: PGQRVYVVAES [SHH_Y316_R321S]
Second: PVDVAYRHGFF [PLEC_Y2967_R2969H_YF]
The phosphorylation enrichment of the first is higher: 0.896 for the first, 0.473 for the second.

Going from IGEGTYRTVFK [CDK5_Y15_G16R] to RNVFFYSFLLK [PTEN_Y178_Y174N_YF], the phosphorylation enrichment rises from 0.638 to 1.23.

First: SLQFEYVHFGG [CDC14A_Y591_S589F_YF]
Second: ILIFHYAKGQP [MPZ_Y82_S78L]
The phosphorylation enrichment of the first is lower: 0.781 for the first, 0.904 for the second.

Compared with HISGVYKLPPD [ANGPTL7_Y145_R140H], KGRAGYTTVAV [RET_Y752] is lower in phosphorylation enrichment: 0.697 for the first, 0.454 for the second.

First: ATARPYRPYII [LRP5_Y1528]
Second: PSGPAYRGAVP [ASAH1_Y43_T42A]
The phosphorylation enrichment of the first is lower: 0.688 for the first, 0.758 for the second.

Going from ARGMEYLASKK [FGFR1_Y613] to RKETFYILSCR [GUCY2C_Y681_T682I], the phosphorylation enrichment rises from 0.506 to 1.1.

Compared with RLRKYHLGKYL [KLB_Y906_Y906H], FLTQHYDAEPQ [ANG_Y38_K41E] is higher in phosphorylation enrichment: 0.61 for the first, 0.785 for the second.

Going from TEQDPYNNIVH [MMUT_Y364_R369H] to YSGDCYRIQGR [DDR2_Y741_Y740C], the phosphorylation enrichment falls from 0.851 to 0.552.

First: LKEIRYPPFTD [ALDH3B2_Y362_H361R_YF]
Second: DQIDTYELSGG [DNM1_Y354]
The phosphorylation enrichment of the first is higher: 1.06 for the first, 0.616 for the second.

Compared with NHFKIYNLCAE [PTEN_Y68_YF], WQQQSYLDYGI [CTNNB1_Y30_S33Y] is higher in phosphorylation enrichment: 0.52 for the first, 0.711 for the second.

Going from GLSAPYVKIHL [SYT2_Y309_D307A] to KIVQDYLEKFY [MMP8_Y36_T32I], the phosphorylation enrichment rises from 0.509 to 0.579.

First: GVRLFYRVRES [RB1_Y454_M457R_YF]
Second: KVGRVYLFLQP [ITGA2B_Y360_E355K]
The phosphorylation enrichment of the first is higher: 0.976 for the first, 0.75 for the second.

First: NRVEIYEKTVE [CYFIP1_Y108]
Second: VPLLEYFRDIF [CDAN1_Y712_YF]
The phosphorylation enrichment of the first is lower: 0.919 for the first, 1.06 for the second.

Going from DDHFTYSRYPW [LY75_Y888] to LVSCTYQLARG [FGFR2_Y608], the phosphorylation enrichment falls from 1.86 to 0.91.

Compared with IHFAIYLLKFS [ARMC9_Y107_YF], PPSLSYLSFEG [EXOSC3_Y143_A139P] is higher in phosphorylation enrichment: 0.668 for the first, 0.702 for the second.

Going from LNARHYGGLTG [PGAM2_Y92_E89A] to KVNKIYHPDFI [LIG3_Y767_Y768H], the phosphorylation enrichment falls from 0.668 to 0.473.

QSPQLYKQMCI [DARS1_Y253] showed a phosphorylation enrichment of 0.932.
